Laboratory results: patent publication US20220340642A1 (Kyowa Kirin, published 2022)

How the values were obtained:
[1] = biological target: T1, soluble recombinant of cynomolgus monkey FasL (His6, Pro133-Leu280) (UniProt P63308 133-280); assay: BIAcore SPR
T1 chain: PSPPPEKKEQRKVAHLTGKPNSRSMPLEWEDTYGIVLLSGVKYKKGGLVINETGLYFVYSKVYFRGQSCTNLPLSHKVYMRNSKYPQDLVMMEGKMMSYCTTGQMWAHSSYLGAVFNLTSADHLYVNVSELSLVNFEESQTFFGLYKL
Summary of the method: (§1)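 Binding of each test molecule to soluble recombinant His-tagged human or cynomolgus monkey LIGHT, TL1A or FasL was analysed by surface plasmon resonance. Measurements used a BIAcore T-100 or T-200 instrument (GE Healthcare) in HBS-EP+ Buffer. The dissociation constant (Kd, nM) was derived from these measurements.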

[2] = biological target: T2, soluble recombinant of cynomolgus monkey TL1A (His6, GS linker, Leu72-Leu251); assay: BIAcore SPR
T2 chain: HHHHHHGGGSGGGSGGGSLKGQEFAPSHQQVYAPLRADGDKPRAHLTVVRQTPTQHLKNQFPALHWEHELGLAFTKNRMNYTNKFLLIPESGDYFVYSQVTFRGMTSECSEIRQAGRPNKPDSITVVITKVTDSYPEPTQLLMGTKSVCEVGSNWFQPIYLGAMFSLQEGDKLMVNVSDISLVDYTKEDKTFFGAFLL
Summary of the method: as §1

[3] = biological target: T3, soluble recombinant of cynomolgus monkey LIGHT (His10, GS linker, Asp74-Val240); assay: BIAcore SPR
T3 chain: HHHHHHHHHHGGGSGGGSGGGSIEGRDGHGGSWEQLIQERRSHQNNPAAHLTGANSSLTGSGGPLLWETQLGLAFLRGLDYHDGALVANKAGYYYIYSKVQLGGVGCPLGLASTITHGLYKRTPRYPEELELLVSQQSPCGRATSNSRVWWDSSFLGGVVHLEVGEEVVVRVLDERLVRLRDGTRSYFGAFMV
Summary of the method: as §1

[4] = biological target: T4, soluble recombinant of cynomolgus monkey TL1A (His6, GS linker, Leu72-Leu251) (cynomolgus monkey); assay: SPR, binder captured on Protein A chip
T4 construct: also called His6-cynoTL1A
T4 chain: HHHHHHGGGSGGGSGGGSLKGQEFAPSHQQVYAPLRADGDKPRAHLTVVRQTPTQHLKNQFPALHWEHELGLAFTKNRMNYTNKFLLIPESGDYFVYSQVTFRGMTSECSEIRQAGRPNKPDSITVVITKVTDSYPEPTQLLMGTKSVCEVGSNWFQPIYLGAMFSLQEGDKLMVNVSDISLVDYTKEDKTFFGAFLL
Method: (§2) The binding activity to human and cynomolgus monkey DcR3 ligand trimers were analyzed by the SPR method. BIAcore T-100 (GE Healthcare) was used for measurement of the binding activities to human LIGHT, cynomolgus monkey LIGHT, human TL1A and cynomolgus monkey TL1A, and BIAcore T-200 (GE Healthcare) was used for measurement of the binding activities to human FasL and cynomolgus monkey FasL. As the buffer, HBS-EP+Buffer was used.
(§3) Various DcR3 variants were injected into Series S Sensor Chip Protein A (GE Healthcare) at 10 μL/min for 30 seconds and captured. Meanwhile, the buffer containing no protein was injected into a reference flow cell. Thereafter, as an analyte, each human DcR3 ligand trimer or each cynomolgus monkey DcR3 ligand trimer diluted to 0.08 to 20 nmol/L was injected. A human LIGHT trimer, a human TL1A trimer or each cynomolgus monkey DcR3 ligand trimer was injected at the flow rate of 30 μL/min for 2 minutes to monitor the binding, and subsequently the buffer was injected for 5 minutes to monitor dissociation. A human FasL trimer was injected at 30 μL/min for 1 minute to monitor the binding, and subsequently the buffer was injected for 3 minutes to monitor dissociation. Then, 3 mol/L magnesium chloride was injected at 30 μL/min for 1 minute to perform a regeneration reaction.

[5] = biological target: T5, soluble recombinant of human TL1A (His6, GS linker, Leu72-Leu251) (human, UniProt O95150 72-251); assay: SPR, binder captured on Protein A chip
T5 construct: also called His6-TL1A; hTL1A
T5 sequence: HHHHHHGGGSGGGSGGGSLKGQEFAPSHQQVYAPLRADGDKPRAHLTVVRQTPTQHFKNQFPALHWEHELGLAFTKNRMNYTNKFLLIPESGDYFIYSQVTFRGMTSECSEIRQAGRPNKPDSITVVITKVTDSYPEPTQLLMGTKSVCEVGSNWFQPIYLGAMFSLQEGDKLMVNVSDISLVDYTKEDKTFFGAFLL
Method: as §2, §3

[6] = biological target: T6, FLAG-LIGHT (FLAG tag, human LIGHT Asp74-Val240) (human, UniProt O43557 74-240); assay: SPR, binder captured on Protein A chip
T6 construct: SEC trimer fraction; also called soluble recombinant FLAG-LIGHT trimer; soluble human LIGHT trimer
Method: as §2, §3

[7] = biological target: T7, FLAG-cynoLIGHT (FLAG tag, cynomolgus monkey LIGHT Asp74-Val240) (cynomolgus monkey); assay: SPR, binder captured on Protein A chip
T7 construct: SEC trimer fraction; also called soluble cynomolgus monkey LIGHT trimer
T7 chain: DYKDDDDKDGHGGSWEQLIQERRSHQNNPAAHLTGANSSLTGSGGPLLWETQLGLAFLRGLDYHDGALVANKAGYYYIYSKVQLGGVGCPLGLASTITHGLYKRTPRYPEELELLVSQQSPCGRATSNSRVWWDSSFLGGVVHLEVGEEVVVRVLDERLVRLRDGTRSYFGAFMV
Method: as §2, §3

[8] = biological target: T8, soluble recombinant of cynomolgus monkey FasL (His6, Pro133-Leu280) (cynomolgus monkey, UniProt P63308 133-280); assay: SPR, binder captured on Protein A chip
T8 construct: also called His6-cynoFasL
T8 sequence: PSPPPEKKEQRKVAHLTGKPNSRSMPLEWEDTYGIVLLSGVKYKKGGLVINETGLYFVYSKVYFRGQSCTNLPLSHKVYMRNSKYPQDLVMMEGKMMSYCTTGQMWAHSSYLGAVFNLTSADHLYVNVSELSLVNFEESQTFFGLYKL
Method: as §2, §3

[9] = biological target: T9, soluble recombinant of human TL1A (His6, GS linker, Leu72-Leu251) (UniProt O95150 72-251); assay: BIAcore SPR
T9 chain: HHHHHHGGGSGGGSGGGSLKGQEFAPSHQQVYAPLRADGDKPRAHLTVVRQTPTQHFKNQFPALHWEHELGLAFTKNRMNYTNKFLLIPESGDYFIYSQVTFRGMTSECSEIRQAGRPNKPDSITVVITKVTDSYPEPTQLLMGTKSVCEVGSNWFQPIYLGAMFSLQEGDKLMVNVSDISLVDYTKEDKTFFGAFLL
Summary of the method: as §1

[10] = biological target: T10, soluble recombinant of human FasL (His6, Pro134-Leu281) (UniProt P48023 134-281); assay: BIAcore SPR
T10 chain: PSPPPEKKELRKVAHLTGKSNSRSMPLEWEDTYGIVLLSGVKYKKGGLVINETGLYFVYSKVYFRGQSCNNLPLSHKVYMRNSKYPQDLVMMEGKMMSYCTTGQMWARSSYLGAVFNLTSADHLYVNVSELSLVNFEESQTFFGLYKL
Summary of the method: as §1

[11] = biological target: T11, soluble recombinant of human LIGHT (His10, GS linker, Asp74-Val240); assay: BIAcore SPR
T11 chain: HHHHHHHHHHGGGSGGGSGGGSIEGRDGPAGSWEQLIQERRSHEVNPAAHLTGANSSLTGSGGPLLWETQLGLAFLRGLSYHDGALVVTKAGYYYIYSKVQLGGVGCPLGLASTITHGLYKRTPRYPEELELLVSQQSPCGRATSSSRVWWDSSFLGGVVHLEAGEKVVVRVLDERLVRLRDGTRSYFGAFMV
Summary of the method: as §1

- Kd [1]: 1.1 nM
- Kd [2]: 0.32 nM
- Kd [3]: 0.29 nM
- binding result [4]: binds
- binding result [5]: binds
- binding result [6]: binds
- binding result [7]: binds
- binding result [8]: binds
- Kd [9]: 0.31 nM
- Kd [10]: 4.6 nM
- Kd [11]: 0.38 nM
B1: chimera A-E57R-Fc (Eg1S LALAGANA) (Fc fusion)
chain: ETFPPKYLHYDEETSHQLLCDKCPPGTYLKQHCTAKWKTVCAPCPPRHYTQFWNYLRRCRYCNVLCGEREEEARACHATHNRACRCRTGFFAHAGFCLEHASCPPGAGVIAPGTPSQNTQCQPCPDGFFSNETSSKAPCRKHTNCSVFGLLLTQKGNATHDNICSGNSESTQKEPKSSDKTHTCPPCPAPEAAGAPSVFLFPPKPKDTLMISRTPEVTCVVVDVSHEDPEVKFNWYVDGVEVHNAKTKPREEQYNSTYRVVSVLTVLHQDWLNGKEYKCKVSNKALPAPIEKTISKAKGQPREPQVYTLPPSRDELTKNQVSLTCLVKGFYPSDIAVEWESNGQPENNYKTTPPVLDSDGSFFLYSKLTVDKSRWQQGNVFSCSVMHEALHAHYTQKSLSLSPGK
